The text below walks through data of patent US20030027338A1 (BROOKHAVEN SCIENCE ASSOCIATES, published 2003).

Where a chain is given by its changes, count along the chain named.

T1: his-tagged Ad12 knob (wild type) (adenovirus serotype 12, UniProt P36711 401-587)
T1 construct: range 401-587; Cloned between the NdeI and BamHI sites of pET15b; tag left on; also called Purified, his-tagged Ad12 knob; wild-type his-tagged knob protein; not shown: pET15b vector-encoded N-terminal hexahistidine tag
T1 sequence: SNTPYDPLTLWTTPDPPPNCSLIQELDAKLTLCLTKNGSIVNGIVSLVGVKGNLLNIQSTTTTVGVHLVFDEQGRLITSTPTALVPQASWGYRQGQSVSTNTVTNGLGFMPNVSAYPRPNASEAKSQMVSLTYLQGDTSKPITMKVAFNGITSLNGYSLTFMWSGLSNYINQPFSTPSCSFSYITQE

T2: Ad12 knob mutant P417E/P418A (his-tagged) (adenovirus serotype 12, UniProt P36711 401-587)
T2 construct: range 401-587; AB loop; also called double substitution P417E/P418A; not shown: pET15b vector-encoded N-terminal hexahistidine tag
T2 sequence: T1 sequence with P17E, P18A

B1: Ad12 knob (recombinant adenovirus type 12 fiber knob domain, his-tag removed by thrombin) (other)
chain: T1 sequence
notes: range 401-587; Expressed from pET15b in E. coli; The hexahistidine tag was cleaved with thrombin; Trimer by SDS-PAGE, STEM (60.6 kDa) and gel filtration; also called Ad12 fiber knob
B2: sD1 (soluble D1 of human CAR with 22 amino acid carboxy-terminal extension) (receptor)
chain: MGITTPEEMIEKAKGETAYLPCKFTLSPEDQGPLDIEWLISPADNQKVDQVIILYSGDKIYDDYYPDLKGRVHFTSNDLKSGDASINVTNLQLSDIGTYQCKVKKAPGVANKKIHLVVLVKPSGALEDPAANKARKEAELAAATAEQ
notes: range 20-144; No hexahistidine tag; Used as a partially purified preparation; also called pET15b-sD1 product
B3: his-tagged D1 (refolded amino-terminal IgV domain of human CAR) (receptor)
chain: MGITTPEEMIEKAKGETAYLPCKFTLSPEDQGPLDIEWLISPADNQKVDQVIILYSGDKIYDDYYPDLKGRVHFTSNDLKSGDASINVTNLQLSDIGTYQCKVKKAPGVANKKIHLVVLVKPSGA
notes: range 20-144; also called CAR D1; CARD1; not shown: pET15b vector-encoded amino-terminal hexahistidine tag
B4: biotinylated CARD1 protein (receptor)
chain: B3 chain with M1L, G2S
modifications: biotinylated with sulfo-NHS-LC biotin (sites not given)
notes: domain: D1
B5: his-tagged D1/D2 (refolded entire extracellular region of human CAR, IgV+IgC2 domains) (receptor)
chain: MGITTPEEMIEKAKGETAYLPCKFTLSPEDQGPLDIEWLISPADNQKVDQVIILYSGDKIYDDYYPDLKGRVHFTSNDLKSGDASINVTNLQLSDIGTYQCKVKKAPGVANKKIHLVVLVKPSGARCYVDGSEEIGSDFKIKCEPKEGSLPLQYEWQKLSDSQKMPTSWLAEMTSSVISVKNASSEYSGTYSCTVRNRVGSDQCLLRLNVVPPSNKAG
notes: range 20-237; also called CAR D1/D2; CARD1/D2; not shown: pET15b vector-encoded amino-terminal hexahistidine tag

For test [1], the target named is B5. Description: Ni-NTA pull-down with his-tagged D1/D2, SDS-PAGE of bead eluate.
The target in test [2] is T1, his-tagged Ad12 knob (wild type). Nature of the test: Ni-NTA column capture of his-tagged knob mixed with sD1, EDTA elution, SDS-PAGE.
Test [3] addresses T3, purified Ad2 hexon protein (adenovirus type 2, UniProt P03277 2-968).
T3 construct: Included as a specificity control in the pull-down
Nature of the test: Ni-NTA pull-down with his-tagged D1, SDS-PAGE of bead eluate.

The target in test [4] is T2, Ad12 knob mutant P417E/P418A …. Nature of the test: dot blot: his-tagged knob on nitrocellulose (5 µg per dot) probed with biotinylated CARD1, chemiluminescence; text: abrogated CARD1 binding.
The target of test [5] is T3, purified Ad2 hexon protein. Nature of the test: Ni-NTA pull-down with his-tagged D1/D2, SDS-PAGE of bead eluate.

T3 sequence (P03277 2-968 limits assumed): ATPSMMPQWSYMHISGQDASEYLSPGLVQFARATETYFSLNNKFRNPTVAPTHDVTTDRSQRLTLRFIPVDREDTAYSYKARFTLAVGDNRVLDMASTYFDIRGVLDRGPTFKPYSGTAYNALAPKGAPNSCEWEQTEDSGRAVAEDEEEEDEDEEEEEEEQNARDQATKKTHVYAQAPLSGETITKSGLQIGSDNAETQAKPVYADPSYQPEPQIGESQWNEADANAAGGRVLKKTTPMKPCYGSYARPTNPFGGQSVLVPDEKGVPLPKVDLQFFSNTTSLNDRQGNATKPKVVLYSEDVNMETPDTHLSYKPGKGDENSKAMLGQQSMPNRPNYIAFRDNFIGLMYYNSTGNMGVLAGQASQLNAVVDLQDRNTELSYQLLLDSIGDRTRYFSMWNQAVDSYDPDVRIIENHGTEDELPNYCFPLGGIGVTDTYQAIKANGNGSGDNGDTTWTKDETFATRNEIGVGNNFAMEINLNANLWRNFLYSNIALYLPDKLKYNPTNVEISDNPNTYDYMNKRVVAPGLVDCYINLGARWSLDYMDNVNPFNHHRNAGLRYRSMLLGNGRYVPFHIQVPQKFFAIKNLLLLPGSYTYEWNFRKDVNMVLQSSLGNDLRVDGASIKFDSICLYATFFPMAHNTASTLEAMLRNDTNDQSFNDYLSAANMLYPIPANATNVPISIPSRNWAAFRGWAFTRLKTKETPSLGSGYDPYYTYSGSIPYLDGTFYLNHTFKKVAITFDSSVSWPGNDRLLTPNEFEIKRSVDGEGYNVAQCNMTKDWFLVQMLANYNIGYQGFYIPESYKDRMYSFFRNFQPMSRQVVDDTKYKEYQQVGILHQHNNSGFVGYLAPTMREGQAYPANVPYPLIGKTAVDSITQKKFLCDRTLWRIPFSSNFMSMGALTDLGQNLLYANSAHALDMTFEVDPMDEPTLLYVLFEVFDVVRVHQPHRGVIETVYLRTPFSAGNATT

For the molecule B1, in test [1], the binding result is recorded as “binds”.
For the molecule B2, in test [2], the binding result is “binds”.
As for B3, in test [3], the binding result was “no binding”.
For B4, the binding result in test [4] is recorded as “no binding (tested: 5 µg/ml biotinylated CARD1)”.
B5: the binding result in test [5] is “no binding”.
